The source of these data is US20210206866A1 (EUCURE BEIJING BIOPHARMA, published 2021).

Substitutions are numbered along the chain they refer to.

By Kd is commonly meant a measure of binding affinity in units of concentration. As a reminder, the koff is the rate constant with which the complex falls apart. One may read the kon as the rate constant with which the complex forms.

T1: mouse OX40 on transfected CHO cells (mouse, UniProt P47741 20-272)
T1 construct: also called mOX40
T1 sequence: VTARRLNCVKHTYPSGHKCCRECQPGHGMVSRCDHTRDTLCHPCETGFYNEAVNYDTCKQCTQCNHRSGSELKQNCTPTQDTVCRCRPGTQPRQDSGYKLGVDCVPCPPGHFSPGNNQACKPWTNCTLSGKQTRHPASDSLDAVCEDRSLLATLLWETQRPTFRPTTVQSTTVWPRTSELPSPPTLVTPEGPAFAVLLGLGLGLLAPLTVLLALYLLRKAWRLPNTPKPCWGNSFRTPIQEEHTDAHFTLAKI

T2: Human OX40 protein (hOX40-His) (human, UniProt P43489 29-214)
T2 construct: Soluble analyte in the SPR assay; also called His-tagged human OX40; not shown: His tag
T2 sequence: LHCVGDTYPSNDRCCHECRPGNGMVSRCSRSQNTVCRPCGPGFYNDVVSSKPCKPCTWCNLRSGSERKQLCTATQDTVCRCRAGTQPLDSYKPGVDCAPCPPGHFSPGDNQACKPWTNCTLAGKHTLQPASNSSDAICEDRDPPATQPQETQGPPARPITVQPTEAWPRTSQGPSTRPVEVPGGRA

B1: mouse anti-hOX40 antibody 07-9H3 (antibody, V domains shown)
VH: QVQLKQSGPGLVQPSQSLSITCTVSGFSLTSYGVLWVRQPPGKGLEWLGVIWSGGSTDYNAAFISRLSISKDNSKSQVFFKMNSLQADDTAIYYCAREEFGYWGQGTLVTVSA
VL: DIQMTQTTSSLSASLGDRVTISCRASQDINNYLNWYQQKPDGTVKLLIYYTSRLHSGVPSRFSGSGSGTDYSLTISNLEQEDIATYFCQQTNTLPWTFGGGTKLEIK
notes: Mouse IgG purified from ascites fluid
B2: 9A4-mHvKv-IgG1 (antibody, V domains shown)
VH: EVQLQQFGAELVKPGASVKISCKASGYTFTDYNMDWVKQSHGKSLEWIGDINPNYDSTSYNQKFKGKATLTVDKSSSTAYMELRSLTSEDTAVYYCARGGYGNYVDYFDYWGQGTTLTVSS
VL: NIVMTQSPKSMSMSVGERVTLSCKASENVVTYVSWYQQKPEQSPKLLIYGASNRYTGVPDRFTGSGSATDFTLTISSVQAEDLADYHCGQSYSYPYTFGGGTKLEIK
notes: Chimeric: mouse 9A4 variable domains with human IgG1 constant domains; also called 9A4 chimeric antibody
B3: 9A4 (mouse antibody) (antibody, V domains shown)
VH: B2 VH
VL: B2 VL
notes: also called 07-9A4
B4: 5C1-mHvKv-IgG1 (antibody, V domains shown)
VH: EVQLQQSGTVLARPGASVKMSCKASGYSFTSYWMHWVKQRPGQGLEWIGTIYPGNSDTSNNQKFKGKAKLTAVTSASTAYMELSSLTNEDSAVYYCTTFYYRYEDYYAMDYWGQGTSVTVSS
VL: DIVMTQSHKFMSTSVGDRVSITCKASQDVNTAVAWYQQKPGQSPKLLIYSASYRYTGVPDRFTGSGSGTDFTFTISSVQAEDLAVYYCQQHYSTPFTFGSGTKLEIK
notes: Chimeric: mouse 5C1 variable domains with human IgG1 constant domains; also called 5C1 chimeric antibody
B5: 9H3-H2K2-IgG1 (antibody, V domains shown)
VH: QVQLVESGGGVVQPGRSLRISCAVSGFSLTSYGVLWVRQAPGKGLEWVAVIWSGGSTDYNAAFISRLTISRDNSKSTVYFQMNSLRAEDTAVYYCAREEFGYWGQGTLVTVSS
VL: DIQMTQSPSSLSASVGDRVTITCRASQDINNYLNWYQQKPGGAVKLLIYYTSRLHSGVPSRFSGSGSGTDFTLTISSLQPEDIATYYCQQTNTLPWTFGGGTKLEIKR
notes: Humanized, with human IgG1 constant domains; also called 9H3 humanized antibody H2K2
B6: 9H3-H3K3-IgG1 (antibody, V domains shown)
VH: B5 VH with V48L, A49G
VL: B5 VL with F71Y, Y87F
notes: Humanized, with human IgG1 constant domains; also called 9H3 humanized antibody H3K3
B7: 9H3-H3K2-IgG1 (antibody, V domains shown)
VH: B5 VH with V48L, A49G
VL: B5 VL
notes: Humanized, with human IgG1 constant domains; also called 9H3 humanized antibody H3K2
B8: 9H3-H2K1-IgG1 (antibody, V domains shown)
VH: B5 VH
VL: B5 VL with S56T, I106V
notes: Humanized, with human IgG1 constant domains (CL, CH1, CH2, CH3); also called 9H3 humanized antibody H2K1
B9: 9H3-H3K1-IgG1 (antibody, V domains shown)
VH: B5 VH with V48L, A49G
VL: B5 VL with S56T, I106V
notes: Humanized, with human IgG1 constant domains; also called 9H3 humanized antibody H3K1
B10: 9H3-H2K3-IgG1 (antibody, V domains shown)
VH: B5 VH
VL: B5 VL with F71Y, Y87F
notes: Humanized, with human IgG1 constant domains; also called 9H3 humanized antibody H2K3
B11: 5D10-mHvKv-IgG1 (antibody, V domains shown)
VH: QVQLKESGPGLVAPSQSLSITCTVSGFSLTSYGVHWIRQPPGKGLEWLGVIWAGGNTNYNSALMSRLSISKDNSKSQVFLKMNSLQTDDTAMYNCASYDGYYGWFAYWGQGTLVTVSV
VL: B1 VL with N30S, N31Y, T91G, N92H
notes: Chimeric: mouse 5D10 variable domains with human IgG1 constant domains; also called 5D10 chimeric antibody
B12: 9H3-mHvKv-IgG1 (antibody, V domains shown)
VH: B1 VH
VL: B1 VL
notes: Chimeric: mouse 9H3 variable domains with human IgG1 constant domains (CL, CH1, CH2, CH3); also called 9H3 chimeric antibody; chimeric anti-hOX40 antibody

One assay concerns the target T1, mouse OX40 on transfected CHO cells. Nature of the assay: flow cytometry, CHO-mOX40 cells; anti-mIgG Fc-FITC against SSC-H. The method, then: 25 ul CHO cells were added to each well. 25 ul purified anti-hOX40 antibodies (1 ug/ml) (9H3 or “07-9H3”) were added to each well and were incubated at 4° C. for 30 minutes.
After being washed with PBS (1200 rmp, 5 min) twice, 50 ul of anti-mouse IgG Fc antibody fluorescein isothiocyanate conjugate (anti-mIgG Fc-FITC) with 1:500 dilution was added into each well and was incubated at 4° C. for 30 minutes, followed by PBS wash (1200 rmp, 5 min). The signals for FITC were determined by flow cytometry.
For orientation: Flow cytometry measures light scatter and fluorescence of single cells or particles in a stream.
Consider B1, for which the binding result is “no binding”.

For another assay, the target named is T2, Human OX40 protein (hOX40-His). Put plainly: SPR, Biacore T200, antibody captured on Protein A chip, hOX40-His as analyte, 1:1 Langmuir fit. As to the method:
The antibodies were tested for hOX40 binding. The affinity of an antibody was determined by surface plasmon resonance (Biacore T200 biosensor, Biacore, INC, Piscataway N.J.) equipped with pre-immobilized Protein A sensor chips.
Anti-hOX40 antibody 9H3-mHvKv-IgG1 (1 μg/mL) were injected into Biacore T200 biosensor at 10 μL/min for 25 seconds to achieve to a desired protein density (about 112 response units (RU)). […] Dissociation was monitored for 300 seconds. The chip was regenerated after the last injection of each titration with Glycine (pH 2.0, 30 μL/min for 12 seconds).
The same method with necessary appropriate adjustments for parameters (e.g., concentrations of the antibodies) were performed for all other tested antibodies.
A general note: In SPR one partner is held on a chip, and binding of the other changes the refractive index at the surface.
B2 had a Kd of 55.3 nM, a koff of 0.00669 s⁻¹ and a kon of 121000 M⁻¹ s⁻¹.
For B3, in that order: 21.6 nM, 0.00192 s⁻¹ and 89100 M⁻¹ s⁻¹.
The like results for B4 were, in that order, 29.8 nM, 0.00163 s⁻¹ and 54900 M⁻¹ s⁻¹.
For B5, in that order: 3.84 nM, 0.00087 s⁻¹ and 227000 M⁻¹ s⁻¹.
In turn, B6 displayed a Kd of 1.92 nM, a koff of 0.000451 s⁻¹ and a kon of 235000 M⁻¹ s⁻¹.
The like results for B7 were, in that order, 3.34 nM, 0.000642 s⁻¹ and 192000 M⁻¹ s⁻¹.
B8: the Kd is 3.35 nM, the koff is 0.000748 s⁻¹ and the kon is 223000 M⁻¹ s⁻¹.
With B9, binding was put at a Kd of 2.49 nM, the koff came to 0.000606 s⁻¹ and the kon amounted to 244000 M⁻¹ s⁻¹.
The molecule B10 displayed a Kd of 1.55 nM, a koff of 0.000393 s⁻¹ and a kon of 254000 M⁻¹ s⁻¹.
For B11, in that order: 46.5 nM, 0.0147 s⁻¹ and 317000 M⁻¹ s⁻¹.
The like results for B12 were, in that order, 2.31 nM, 0.000594 s⁻¹ and 258000 M⁻¹ s⁻¹.

Another assay has as its target chimeric (mouse and human) OX40 on transfected CHO cells (chimeric (mouse and human)). Nature of the assay: flow cytometry, CHO-chiOX40 cells; antibody at 1 ug/ml; anti-mIgG Fc-FITC (x axis) against SSC-H; NC panel of the same cells 2.78%.
B1: the % of cells in the anti-mouse-IgGFc-FITC positive gate amounted to 33.9%.
